# Test results taken from US20240392262A1, “TRANSPOSASE AND USES THEREOF” (Poseida Therapeutics, Inc., published 2024).
# B1: PAH5 target (dsDNA)
# DNA 1: TTCTAGGAAACTTGAACTATGATTTTAAAAAAAGAGAAAGAAGGAAACAAAA
# DNA 2: TTTTGTTTCCTTCTTTCTCTTTTTTTAAAATCATAGTTCAAGTTTCCTAGAA
# B2: PAH4 target (dsDNA)
# DNA 1: TATGATCCTAATCAGGCTTGTAAATTAACTTTTGAGGCTCTCTTAGCAATCA
# DNA 2: TGATTGCTAAGAGAGCCTCAAAAGTTAATTTACAAGCCTGATTAGGATCATA
# Columns and labels:
# Settings in all cases: tags: 3xFlag, SV40 NLS
# PAH5 Left TAL-PBx = target: T1, PAH5 Left TAL-PBx (synthetic construct); test: cell_activity; left only
# T1 chain: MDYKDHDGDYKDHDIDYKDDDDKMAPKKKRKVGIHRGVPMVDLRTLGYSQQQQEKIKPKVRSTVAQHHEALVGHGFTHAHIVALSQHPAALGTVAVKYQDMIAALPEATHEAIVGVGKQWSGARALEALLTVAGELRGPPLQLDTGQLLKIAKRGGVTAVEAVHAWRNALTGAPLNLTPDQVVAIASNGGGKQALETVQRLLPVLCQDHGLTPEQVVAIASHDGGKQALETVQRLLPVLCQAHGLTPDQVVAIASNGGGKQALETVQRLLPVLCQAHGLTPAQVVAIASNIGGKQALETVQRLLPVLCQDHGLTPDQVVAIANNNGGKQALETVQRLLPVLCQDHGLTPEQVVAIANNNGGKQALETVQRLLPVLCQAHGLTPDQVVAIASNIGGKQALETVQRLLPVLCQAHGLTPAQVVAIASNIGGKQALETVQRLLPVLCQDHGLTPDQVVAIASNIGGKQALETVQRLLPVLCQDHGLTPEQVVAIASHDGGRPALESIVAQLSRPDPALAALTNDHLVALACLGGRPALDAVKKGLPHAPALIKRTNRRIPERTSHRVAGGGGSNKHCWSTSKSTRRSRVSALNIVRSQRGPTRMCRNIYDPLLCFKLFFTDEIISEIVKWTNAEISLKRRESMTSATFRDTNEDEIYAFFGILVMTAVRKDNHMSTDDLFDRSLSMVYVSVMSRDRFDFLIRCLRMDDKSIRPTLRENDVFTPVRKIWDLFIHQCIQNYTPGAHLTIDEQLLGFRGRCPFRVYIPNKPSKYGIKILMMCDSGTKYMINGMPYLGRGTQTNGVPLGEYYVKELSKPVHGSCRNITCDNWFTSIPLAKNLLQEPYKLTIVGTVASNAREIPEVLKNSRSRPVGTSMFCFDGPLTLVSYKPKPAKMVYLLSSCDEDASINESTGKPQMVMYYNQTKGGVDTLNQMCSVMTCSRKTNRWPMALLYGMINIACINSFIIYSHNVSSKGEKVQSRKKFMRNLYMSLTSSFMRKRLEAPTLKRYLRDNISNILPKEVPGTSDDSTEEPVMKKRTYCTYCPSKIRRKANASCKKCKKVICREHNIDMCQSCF
# PAH5 Right TAL-PBx = target: T2, PAH5 Right TAL-PBx (synthetic construct); test: cell_activity; right only
# T2 chain: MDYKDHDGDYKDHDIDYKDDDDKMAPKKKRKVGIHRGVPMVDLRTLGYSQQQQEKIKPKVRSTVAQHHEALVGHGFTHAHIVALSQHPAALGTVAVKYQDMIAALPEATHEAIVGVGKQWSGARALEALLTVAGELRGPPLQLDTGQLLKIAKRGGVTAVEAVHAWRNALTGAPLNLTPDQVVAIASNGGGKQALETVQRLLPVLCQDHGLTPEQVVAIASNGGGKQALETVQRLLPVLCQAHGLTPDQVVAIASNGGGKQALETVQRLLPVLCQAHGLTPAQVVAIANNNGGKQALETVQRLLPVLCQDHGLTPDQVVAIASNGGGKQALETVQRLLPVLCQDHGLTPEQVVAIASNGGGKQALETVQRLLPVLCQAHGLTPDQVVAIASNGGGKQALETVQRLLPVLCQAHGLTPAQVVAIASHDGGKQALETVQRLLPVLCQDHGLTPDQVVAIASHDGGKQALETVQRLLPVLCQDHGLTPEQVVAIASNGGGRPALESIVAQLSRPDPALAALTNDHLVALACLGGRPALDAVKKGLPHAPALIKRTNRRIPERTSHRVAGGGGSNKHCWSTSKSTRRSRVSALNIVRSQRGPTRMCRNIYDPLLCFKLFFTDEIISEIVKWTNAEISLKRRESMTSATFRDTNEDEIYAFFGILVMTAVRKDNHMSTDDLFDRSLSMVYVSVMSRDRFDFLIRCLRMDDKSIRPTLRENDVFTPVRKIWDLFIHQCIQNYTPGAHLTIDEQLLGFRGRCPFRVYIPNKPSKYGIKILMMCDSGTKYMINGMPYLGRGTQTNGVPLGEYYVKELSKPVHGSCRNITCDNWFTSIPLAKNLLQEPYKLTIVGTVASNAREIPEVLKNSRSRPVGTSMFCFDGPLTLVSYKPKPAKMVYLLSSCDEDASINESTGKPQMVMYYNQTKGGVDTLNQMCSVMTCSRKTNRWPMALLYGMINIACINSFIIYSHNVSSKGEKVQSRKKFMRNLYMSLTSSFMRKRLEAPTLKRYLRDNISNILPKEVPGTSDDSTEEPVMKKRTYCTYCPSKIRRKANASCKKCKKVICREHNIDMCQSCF
# PAH4 Left TAL-PBx = target: T3, PAH4 Left TAL-PBx (synthetic construct); test: cell_activity; left only
# T3 chain: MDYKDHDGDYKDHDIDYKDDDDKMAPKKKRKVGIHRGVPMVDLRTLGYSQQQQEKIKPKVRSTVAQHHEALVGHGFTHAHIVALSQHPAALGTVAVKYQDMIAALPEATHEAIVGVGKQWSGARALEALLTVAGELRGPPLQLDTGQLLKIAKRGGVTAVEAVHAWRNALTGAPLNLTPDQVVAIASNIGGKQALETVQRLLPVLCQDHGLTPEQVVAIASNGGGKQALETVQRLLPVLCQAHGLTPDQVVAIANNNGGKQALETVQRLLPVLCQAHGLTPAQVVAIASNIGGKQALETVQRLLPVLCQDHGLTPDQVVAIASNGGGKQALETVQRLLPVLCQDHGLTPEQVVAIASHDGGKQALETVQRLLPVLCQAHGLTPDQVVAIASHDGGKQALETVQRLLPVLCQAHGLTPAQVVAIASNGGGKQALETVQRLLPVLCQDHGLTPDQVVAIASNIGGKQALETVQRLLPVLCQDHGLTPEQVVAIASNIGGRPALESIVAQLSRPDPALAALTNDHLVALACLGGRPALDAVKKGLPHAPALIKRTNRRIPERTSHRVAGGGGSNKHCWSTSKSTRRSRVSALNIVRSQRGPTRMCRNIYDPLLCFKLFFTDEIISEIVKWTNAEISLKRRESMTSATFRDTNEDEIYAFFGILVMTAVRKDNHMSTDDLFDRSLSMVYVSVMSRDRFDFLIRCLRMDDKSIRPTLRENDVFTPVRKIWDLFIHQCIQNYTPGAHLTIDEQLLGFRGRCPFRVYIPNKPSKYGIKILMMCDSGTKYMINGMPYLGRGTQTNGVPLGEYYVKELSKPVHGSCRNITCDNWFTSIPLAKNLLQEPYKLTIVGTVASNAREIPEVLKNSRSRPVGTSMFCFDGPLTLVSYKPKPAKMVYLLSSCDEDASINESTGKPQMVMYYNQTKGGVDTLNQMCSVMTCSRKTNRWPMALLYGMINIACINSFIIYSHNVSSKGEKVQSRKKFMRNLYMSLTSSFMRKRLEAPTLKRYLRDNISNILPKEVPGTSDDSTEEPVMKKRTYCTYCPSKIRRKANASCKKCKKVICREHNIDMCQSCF
# PAH4 Right TAL-PBx = target: T4, PAH4 Right TAL-PBx (synthetic construct); test: cell_activity; right only
# T4 chain: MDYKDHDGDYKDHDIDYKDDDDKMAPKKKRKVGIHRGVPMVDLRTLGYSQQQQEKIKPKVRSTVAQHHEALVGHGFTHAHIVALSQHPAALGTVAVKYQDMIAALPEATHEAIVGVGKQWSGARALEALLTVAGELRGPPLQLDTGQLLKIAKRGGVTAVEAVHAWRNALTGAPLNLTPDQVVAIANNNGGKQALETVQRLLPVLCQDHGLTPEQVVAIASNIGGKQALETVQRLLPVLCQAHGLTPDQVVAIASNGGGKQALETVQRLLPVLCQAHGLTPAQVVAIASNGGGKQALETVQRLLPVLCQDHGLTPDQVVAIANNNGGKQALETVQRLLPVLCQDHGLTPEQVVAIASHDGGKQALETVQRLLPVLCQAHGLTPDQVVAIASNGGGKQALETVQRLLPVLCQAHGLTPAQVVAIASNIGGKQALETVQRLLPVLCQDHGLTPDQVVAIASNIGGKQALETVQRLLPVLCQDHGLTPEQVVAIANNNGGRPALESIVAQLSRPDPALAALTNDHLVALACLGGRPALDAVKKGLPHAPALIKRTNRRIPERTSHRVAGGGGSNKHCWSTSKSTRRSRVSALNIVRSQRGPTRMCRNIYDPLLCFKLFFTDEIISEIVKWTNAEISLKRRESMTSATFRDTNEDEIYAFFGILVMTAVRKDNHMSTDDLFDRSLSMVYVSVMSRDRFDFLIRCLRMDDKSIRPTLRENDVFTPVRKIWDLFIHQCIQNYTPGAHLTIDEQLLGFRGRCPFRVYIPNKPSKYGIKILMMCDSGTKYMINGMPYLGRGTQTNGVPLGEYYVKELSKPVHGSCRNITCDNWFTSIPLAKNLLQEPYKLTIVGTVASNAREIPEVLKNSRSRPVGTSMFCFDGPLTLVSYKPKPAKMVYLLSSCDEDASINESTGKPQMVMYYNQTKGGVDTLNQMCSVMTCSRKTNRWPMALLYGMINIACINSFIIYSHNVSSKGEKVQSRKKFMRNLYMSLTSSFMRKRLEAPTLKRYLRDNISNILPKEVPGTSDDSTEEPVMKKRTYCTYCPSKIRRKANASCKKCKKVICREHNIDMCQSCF
Binder,activity (PAH5 Left TAL-PBx) [% GFP+],activity (PAH5 Right TAL-PBx) [% GFP+],activity (PAH4 Left TAL-PBx) [% GFP+],activity (PAH4 Right TAL-PBx) [% GFP+]
B1,3.6,3.9,,
B2,,,3.6,2.9
